Assay results published in patent US20060160761A1, “Regulation of vascular endothelium using BMX tyrosine kinase” (priority 1994, published 2006).
Entries after “also recorded” stand apart in the source; their conditions may differ.

B1: GCSF: GCSF growth factor (granulocyte growth factor), gift from Dr. Riitta Alitalo (protein)
chain: TPLGPASSLPQSFLLKCLEQVRKIQGDGAALQEKLCATYKLCHPEELVLLGHSLGIPWAPLSSCPSQALQLAGCLSQLHSGLFLYQGLLQALEGISPELGPTLDTLQLDVADFATTIWQQMEELGMAPALQPTQGAMPAFASAFQRRAGGVLVASHLQSFLEVSYRVLRHLAQP
B2: VEGF-B: VEGF-B produced in Drosophila cells; ligand of Flt1 receptor (protein, UniProt P49765 22-207, looked up)
Vascular endothelial growth …: PVSQPDAPGHQRKVVSWIDVYTRATCQPREVVVPLTVELMGTVAKQLVPSCVTVQRCGGCCPDDGLECVPTGQHQVRMQILMIRYPSSQLGEMSLEEHSQCECRPKKKDSAVKPDRAATPHHRPQPRSVPGWDSAPGAPSPADITHPTPAPGPSAHAAPSTTSALTPGPAAAAADAAASSVAKGGA

What was measured:
endogenous Bmx = assay: Kinase activity of endogenous Bmx immunoprecipitated from stimulated HUVECs, with or without PI-3 kinase inhibitors; format: cell-based, human; conditions: HUVECs starved overnight; hVEGF and VEGF-B 60 ng/ml for 5 min, IL-3 200 ng/ml for 30 min
Source text: The polyclonal antibody (Ab) against human Bmx was produced against the Tec Homology (TH) domain by Dr. Toshio Suda (amino acids 151-169, NH2-[…]—COOH (SEQ. ID. NO.: 4)). The monoclonal anti-hemagglutinin (HA)-epitope Ab, phosphotyrosine Ab, and anti-CD31 Ab were from Berkeley Antibody Company (Richmond, Calif.), from Transduction Laboratories and from DAKO, respectively. GCSF growth factor was a kind gift from Dr. Riitta Alitalo, while VEGF was obtained from R&D Systems, Minneapolis, Minn. VEGF-B was produced in Drosophila cells by Terhi Karpanen. Mouse IL-3 was obtained from Calbiochem Novabiochem. Phosphatidyl inositol-3 kinase inhibitors Wortmannin and LY294002, were both from Sigma. For inhibition of PI3K activity, 100 nM for 30 min of Wortmannin and 100 μM of LY294002 for 30 min, were used.
Cell culture and transfections. 293T cells were grown in Dulbecco's Modified Eagle's Medium (DMEM), Human umbilical vein endothelial cells (HUVECs) were maintained in Hy-clone 199 medium. […]
(§1) In vitro substrate immunocomplex kinase assay was performed as follows. […] The filters were fixed and washed one time in 10% TCA 8% sodium pyrophosphate, 3 times in 5% TCA and 2 times in ethanol after which radioactivity was measured using Pharmacia Wallac 1410 Liquid Scintillation Counter. […] The gel was dried and Bmx autokinase activity was detected by exposure on film.

Bmx = assay: In vitro substrate immunocomplex kinase assay of Bmx immunoprecipitated from stimulated BmxHA expressing 32Dcl3 cells; format: cell-based, mouse; conditions: BmxHA expressing 32Dcl3 pools, starved 14 hours in IL-3 and serum free media; IL-3 200 ng/ml for 30 min, hGCSF 100 ng/ml for 5 min; vs unstimulated
Experimental: Cell culture and transfections. 293T cells were grown in Dulbecco's Modified Eagle's Medium (DMEM), Human umbilical vein endothelial cells (HUVECs) were maintained in Hy-clone 199 medium. […] All media were supplemented with 10% fetal calf serum, glutamine and antibiotics, the Hy-clone 199 medium additionally with endothelial cell growth supplement-ECGS (Upstate Biotechnology). Where indicated, cells were stimulated with growth factors, hGCSF 100 ng/ml, hVEGF and VEGF-B 60 ng/ml, for 5 min or with mIL-3 or hIL-3, 200 ng/ml, for 30 min.
Transfections and generation of stable BmxHA and BmxHA K444R expressing pools (and clones). Transient co-transfections of293T cells were done using the Calcium Phosphate Transfection kit (GIBCO) according to manufacturer's instructions. The cells were transfected with Bmx-HA expression plasmid and the receptor plasmid or empty vector (PCI-Neo or pcDNAZ3.1) in the ration of 1:4. […]
as §1

Molecule	endogenous Bmx kinase activity after stimulation (endogenous Bmx)	increase of Bmx kinase activity (Bmx)
VEGF	increased endogenous Bmx activity; also recorded: activated	
B1		around 1.7 fold
B2	increased endogenous Bmx activity; also recorded: activated	
